In US20100119478A1 (PROBIODRUG, published 2010):

T1: 07 AQPDAVNAPL
T1 construct: member of group m23; also called PepSpot spot 07
T1 peptide: AQPDAVNAPL

T2: 11 EKLTGPDKAVT
T2 construct: member of group m23; also called PepSpot spot 11
T2 peptide: EKLTGPDKAVT

T3: 09 DAVNAPL
T3 construct: member of group m23; also called PepSpot spot 09
T3 peptide: DAVNAPL

T4: 16 LAQDALNVPST
T4 construct: member of group m23; also called PepSpot spot 16
T4 peptide: LAQDALNVPST

B1: monoclonal antibody 348-2C9 (antibody, V domains shown)
VH: EVQLQQSGPELVKPGASVKMSCKASGYTFTDYYMDWVKQSHGESFECIGRVNPYNGGTSYNQKFKGKATLTVDKSSSTAYMELNSLTSEDSAVYYCARLGSSYRWGQGTTLTVSS
VL: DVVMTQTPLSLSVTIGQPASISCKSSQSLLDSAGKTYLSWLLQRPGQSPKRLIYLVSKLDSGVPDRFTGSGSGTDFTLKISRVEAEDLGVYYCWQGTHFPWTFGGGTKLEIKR
notes: Mouse IgG2b from hybridoma, Protein-G purified; also called Clone 2C9; DSM ACC 2906
B2: monoclonal antibody 348-1D4 (antibody, V domains shown)
VH: B1 VH
VL: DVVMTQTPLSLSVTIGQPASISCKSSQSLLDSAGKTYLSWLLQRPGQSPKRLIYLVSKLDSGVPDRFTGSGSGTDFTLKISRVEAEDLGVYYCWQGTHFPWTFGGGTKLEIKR
notes: Mouse IgG2b from hybridoma, Protein-G purified; also called Clone 1D4; DSM ACC 2905
B3: monoclonal antibody 332-4B8 (antibody, V domains shown)
VH: EVQLQQSGPELEKPGASVKISCKASGYSFTGYNMNWVKQNNGKSLEWIGNITPYYGSTSYNQKFKGRVTLTVDKSSSTAYMQLKSLTSEDSAVYFCLLWLRRGDYAMDYWGQGTSVTVSS
VL: DVLMTQTPLSLPVSLGDQASISCKSSQSIVHSNGNTYLEWYLQKPGQSPKLLIYKVFNRFSGVPDRFSGSGSGTDFTLKISRVEAEDLGVYYCFQGSHVPYTFGGGTKLEIKR
notes: Mouse IgG1 from hybridoma, Protein-G purified; also called Clone 4B8; 322-4B8

Experiments:
Test in all cases: PepSpot membrane, peptide 1 µg/spot, antibody 1 µg/ml, AP-conjugated anti-mouse detection
07 AQPDAVNAPL = biological target: T1, 07 AQPDAVNAPL
Method: (§1) Corresponding PepSpot membranes were prepared by JPT Peptide Technologies GmbH, Berlin (JPT). On these membranes, peptides with the indicated amino acid sequences (see FIG. 3; Z represents pE) were immobilized at a concentration of 1 μg/spot.
(§2) For analysis, membranes were blocked for two hours with TBST-M (=TBST+5% skimmed milk) at room temperature with gentle shaking. Membranes were incubated over night at 4° C. on a rocking platform with the individual MCP-1 N1pE antibody clones diluted to 1 μg/ml in equal volumes of TBST-M. Secondary anti-mouse antibody conjugated with alkaline phosphatase was used for signal detection, following standard procedures.

11 EKLTGPDKAVT = biological target: T2, 11 EKLTGPDKAVT
Method: as §1, §2

09 DAVNAPL = biological target: T3, 09 DAVNAPL
Method: as §1, §2

16 LAQDALNVPST = biological target: T4, 16 LAQDALNVPST
Method: as §1, §2

Binder	binding result (07 AQPDAVNAPL)	binding result (11 EKLTGPDKAVT)	binding result (09 DAVNAPL)	binding result (16 LAQDALNVPST)
B1	no binding (tested: 1 µg peptide per spot)	no binding (tested: 1 µg peptide per spot)	no binding (tested: 1 µg peptide per spot)	no binding (tested: 1 µg peptide per spot)
B2	no binding (tested: 1 µg peptide per spot)	no binding (tested: 1 µg peptide per spot)	no binding (tested: 1 µg peptide per spot)	no binding (tested: 1 µg peptide per spot)
B3	no binding (tested: 1 µg peptide per spot)	no binding (tested: 1 µg peptide per spot)	no binding (tested: 1 µg peptide per spot)	no binding (tested: 1 µg peptide per spot)
